T1: mouse FcγRII extracellular domain, C-terminally His-tagged (mouse, UniProt P08101 30-210)
T1 construct: the whole entry is named; also called mFcγRII; mFcgRII
T1 sequence: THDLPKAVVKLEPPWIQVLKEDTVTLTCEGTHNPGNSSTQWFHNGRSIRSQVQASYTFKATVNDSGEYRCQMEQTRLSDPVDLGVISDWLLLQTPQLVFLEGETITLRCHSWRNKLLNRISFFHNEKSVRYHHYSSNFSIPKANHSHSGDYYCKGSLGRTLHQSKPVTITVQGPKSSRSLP

T2: mouse FcγRIII extracellular domain, C-terminally His-tagged (mouse, UniProt P08508 31-215)
T2 construct: the whole entry is named; also called mFcγRIII; mFcgRIII
T2 chain: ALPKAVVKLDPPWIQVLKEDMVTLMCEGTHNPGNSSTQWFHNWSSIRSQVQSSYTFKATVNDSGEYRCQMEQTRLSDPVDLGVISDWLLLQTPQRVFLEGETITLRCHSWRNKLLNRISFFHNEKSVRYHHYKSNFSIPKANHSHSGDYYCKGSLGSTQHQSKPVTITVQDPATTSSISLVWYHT

B1: H237-MB453/MRAL-k0 (antibody, mouse IgG1, kappa)
heavy: QVQLQESGPGLVKPSETLSLTCAVSGHSISHDHAWSWVRQPPGEGLEWIGFISYSGITNYNPSLQGRVTISRDNSKNTLYLQMNSLRAEDTAVYYCARSLARTTAMDYWGEGTLVTVSSAKTTPPSVYPLAPGSAAQTNSMVTLGCLVKGYFPEPVTVTWNSGSLSSGVHTFPAVLQSDLYTLSSSVTVPSSTWPSETVTCNVAHPASSTKVDKKIVPRDCGCKPCICETYEVEDVFIFPPKPKDVLTITLTPKVTCVVVDISKDDPEVQFSWFVDDVEVHTAQTQPREEQFNSTFRSVSELPIMHQDWLNGKEFKCRVNSAAFPADIEKTISKTKGRPKAPQVYTIPPPKEQMAKDKVSLTCMITDFFPEDITVEWQWNGQPAENYKNTQPIMDTDGSYFVYSKLNVQKSNWEAGNTFTCSVLHEGLHNHHTEKSLSHSPGK
light: not shown
notes: copies: 2 + 2
B2: H237-MB458/MRAL-k0 (antibody, mouse IgG1, kappa)
heavy: QVQLQESGPGLVKPSETLSLTCAVSGHSISHDHAWSWVRQPPGEGLEWIGFISYSGITNYNPSLQGRVTISRDNSKNTLYLQMNSLRAEDTAVYYCARSLARTTAMDYWGEGTLVTVSSAKTTPPSVYPLAPGSAAQTNSMVTLGCLVKGYFPEPVTVTWNSGSLSSGVHTFPAVLQSDLYTLSSSVTVPSSTWPSETVTCNVAHPASSTKVDKKIVPRDCGCKPCICETYEVEDVFIFPPKPKDVLTITLTPKVTCVVVDISKDDPEVQFSWFVDDVEVHTAQTQPREEQFNSTFRSVSELPIMHQDWLNGKEFKCRVNSAAFPAPIVKTISKTKGRPKAPQVYTIPPPKEQMAKDKVSLTCMITDFFPEDITVEWQWNGQPAENYKNTQPIMDTDGSYFVYSKLNVQKSNWEAGNTFTCSVLHEGLHNHHTEKSLSHSPGK
light: not shown
notes: copies: 2 + 2
B3: H237-MB459/MRAL-k0 (antibody, mouse IgG1, kappa)
heavy: QVQLQESGPGLVKPSETLSLTCAVSGHSISHDHAWSWVRQPPGEGLEWIGFISYSGITNYNPSLQGRVTISRDNSKNTLYLQMNSLRAEDTAVYYCARSLARTTAMDYWGEGTLVTVSSAKTTPPSVYPLAPGSAAQTNSMVTLGCLVKGYFPEPVTVTWNSGSLSSGVHTFPAVLQSDLYTLSSSVTVPSSTWPSETVTCNVAHPASSTKVDKKIVPRDCGCKPCICETYEVEDVFIFPPKPKDVLTITLTPKVTCVVVDISKDDPEVQFSWFVDDVEVHTAQTQPREEQFNSTFRSVSELPIMHQDWLNGKEFKCRVNSAAFPAPIEKNISKTKGRPKAPQVYTIPPPKEQMAKDKVSLTCMITDFFPEDITVEWQWNGQPAENYKNTQPIMDTDGSYFVYSKLNVQKSNWEAGNTFTCSVLHEGLHNHHTEKSLSHSPGK
light: not shown
notes: copies: 2 + 2
B4: H237-MB455/MRAL-k0 (antibody)
heavy: QVQLQESGPGLVKPSETLSLTCAVSGHSISHDHAWSWVRQPPGEGLEWIGFISYSGITNYNPSLQGRVTISRDNSKNTLYLQMNSLRAEDTAVYYCARSLARTTAMDYWGEGTLVTVSSAKTTPPSVYPLAPGSAAQTNSMVTLGCLVKGYFPEPVTVTWNSGSLSSGVHTFPAVLQSDLYTLSSSVTVPSSTWPSETVTCNVAHPASSTKVDKKIVPRDCGCKPCICETYEVEDVFIFPPKPKDVLTITLTPKVTCVVVDISKDDPEVQFSWFVDDVEVHTAQTQPREEQFNSTFRSVSELPIMHQDWLNGKEFKCRVNSAAFPAYIEKTISKTKGRPKAPQVYTIPPPKEQMAKDKVSLTCMITDFFPEDITVEWQWNGQPAENYKNTQPIMDTDGSYFVYSKLNVQKSNWEAGNTFTCSVLHEGLHNHHTEKSLSHSPGK
light: not shown
notes: copies: 2 + 2
B5: H237-MB457/MRAL-k0 (antibody, mouse IgG1, kappa)
heavy: QVQLQESGPGLVKPSETLSLTCAVSGHSISHDHAWSWVRQPPGEGLEWIGFISYSGITNYNPSLQGRVTISRDNSKNTLYLQMNSLRAEDTAVYYCARSLARTTAMDYWGEGTLVTVSSAKTTPPSVYPLAPGSAAQTNSMVTLGCLVKGYFPEPVTVTWNSGSLSSGVHTFPAVLQSDLYTLSSSVTVPSSTWPSETVTCNVAHPASSTKVDKKIVPRDCGCKPCICETYEVEDVFIFPPKPKDVLTITLTPKVTCVVVDISKDDPEVQFSWFVDDVEVHTAQTQPREEQFNSTFRSVSELPIMHQDWLNGKEFKCRVNSAAFPAPIYKTISKTKGRPKAPQVYTIPPPKEQMAKDKVSLTCMITDFFPEDITVEWQWNGQPAENYKNTQPIMDTDGSYFVYSKLNVQKSNWEAGNTFTCSVLHEGLHNHHTEKSLSHSPGK
light: not shown
notes: copies: 2 + 2
B6: H237-MB460/MRAL-k0 (antibody, mouse IgG1, kappa)
heavy: QVQLQESGPGLVKPSETLSLTCAVSGHSISHDHAWSWVRQPPGEGLEWIGFISYSGITNYNPSLQGRVTISRDNSKNTLYLQMNSLRAEDTAVYYCARSLARTTAMDYWGEGTLVTVSSAKTTPPSVYPLAPGSAAQTNSMVTLGCLVKGYFPEPVTVTWNSGSLSSGVHTFPAVLQSDLYTLSSSVTVPSSTWPSETVTCNVAHPASSTKVDKKIVPRDCGCKPCICETYEVEDVFIFPPKPKDVLTITLTPKVTCVVVDISKDDPEVQFSWFVDDVEVHTAQTQPREEQFNSTFRSVSELPIMHQDWLNGKEFKCRVNSAAFPAPIEKYISKTKGRPKAPQVYTIPPPKEQMAKDKVSLTCMITDFFPEDITVEWQWNGQPAENYKNTQPIMDTDGSYFVYSKLNVQKSNWEAGNTFTCSVLHEGLHNHHTEKSLSHSPGK
light: not shown
notes: copies: 2 + 2
B7: H237-MB461/MRAL-k0 (antibody, mouse IgG1, kappa)
heavy: QVQLQESGPGLVKPSETLSLTCAVSGHSISHDHAWSWVRQPPGEGLEWIGFISYSGITNYNPSLQGRVTISRDNSKNTLYLQMNSLRAEDTAVYYCARSLARTTAMDYWGEGTLVTVSSAKTTPPSVYPLAPGSAAQTNSMVTLGCLVKGYFPEPVTVTWNSGSLSSGVHTFPAVLQSDLYTLSSSVTVPSSTWPSETVTCNVAHPASSTKVDKKIVPRDCGCKPCICETYEVEDVFIFPPKPKDVLTITLTPKVTCVVVDISKDDPEVQFSWFVDDVEVHTAQTQPREEQFNSTFRSVSELPIMHQDWLNGKEFKCRVNSAAFPAPIEKTIIKTKGRPKAPQVYTIPPPKEQMAKDKVSLTCMITDFFPEDITVEWQWNGQPAENYKNTQPIMDTDGSYFVYSKLNVQKSNWEAGNTFTCSVLHEGLHNHHTEKSLSHSPGK
light: not shown
notes: copies: 2 + 2
B8: H237-MB456/MRAL-k0 (antibody, mouse IgG1, kappa)
heavy: QVQLQESGPGLVKPSETLSLTCAVSGHSISHDHAWSWVRQPPGEGLEWIGFISYSGITNYNPSLQGRVTISRDNSKNTLYLQMNSLRAEDTAVYYCARSLARTTAMDYWGEGTLVTVSSAKTTPPSVYPLAPGSAAQTNSMVTLGCLVKGYFPEPVTVTWNSGSLSSGVHTFPAVLQSDLYTLSSSVTVPSSTWPSETVTCNVAHPASSTKVDKKIVPRDCGCKPCICETYEVEDVFIFPPKPKDVLTITLTPKVTCVVVDISKDDPEVQFSWFVDDVEVHTAQTQPREEQFNSTFRSVSELPIMHQDWLNGKEFKCRVNSAAFPAPINKTISKTKGRPKAPQVYTIPPPKEQMAKDKVSLTCMITDFFPEDITVEWQWNGQPAENYKNTQPIMDTDGSYFVYSKLNVQKSNWEAGNTFTCSVLHEGLHNHHTEKSLSHSPGK
light: not shown
notes: copies: 2 + 2
B9: H237-MB454/MRAL-k0 (antibody, mouse IgG1, kappa)
heavy: QVQLQESGPGLVKPSETLSLTCAVSGHSISHDHAWSWVRQPPGEGLEWIGFISYSGITNYNPSLQGRVTISRDNSKNTLYLQMNSLRAEDTAVYYCARSLARTTAMDYWGEGTLVTVSSAKTTPPSVYPLAPGSAAQTNSMVTLGCLVKGYFPEPVTVTWNSGSLSSGVHTFPAVLQSDLYTLSSSVTVPSSTWPSETVTCNVAHPASSTKVDKKIVPRDCGCKPCICETYEVEDVFIFPPKPKDVLTITLTPKVTCVVVDISKDDPEVQFSWFVDDVEVHTAQTQPREEQFNSTFRSVSELPIMHQDWLNGKEFKCRVNSAAFPAFIEKTISKTKGRPKAPQVYTIPPPKEQMAKDKVSLTCMITDFFPEDITVEWQWNGQPAENYKNTQPIMDTDGSYFVYSKLNVQKSNWEAGNTFTCSVLHEGLHNHHTEKSLSHSPGK
light: not shown
notes: copies: 2 + 2

Columns and labels:
[1] = biological target: T1, mouse FcγRII extracellular domain, …; test: SPR Biacore T200, KD ratio
Description: (§1) The antibody H chain variable region used was the variable region H237 (SEQ ID NO: 1) of the H chain VH3-IgG1 of the anti-IL-6 receptor antibody Fv4-IgG1 described in WO2009/125825. The antibody L chain commonly used was the L chain MRAL-k0 (SEQ ID NO: 2) of the anti-IL-6 receptor antibody tocilizumab. […] The resulting variant groups were designated as MB397 variants and MB390 variants, respectively. These variants were expressed and purified by the method of Reference Example 1 and evaluated for their binding to mFcγRII and mFcγRIII by the method of Reference Example 2 using Biacore T200.
(§2) Each altered antibody was analyzed for its interaction with each Fcγ receptor prepared above using Biacore T100 (GE Healthcare Japan Corp.), Biacore T200 (GE Healthcare Japan Corp.), Biacore A100, or Biacore 4000. The running buffer used was HBS-EP+ (GE Healthcare Japan Corp.). The assay temperature was set to 25° C. The sensor chips used were chips prepared by immobilizing Protein L (ACTIGEN or BioVision) onto Series S Sensor Chip CM5 (GE Healthcare Japan Corp.) or Series S Sensor Chip CM4 (GE Healthcare Japan Corp.) by the amine coupling method.
(§3) In order to calculate the KD value of each altered antibody for FcγR, kinetic analysis was conducted according to the following method: first, the antibody of interest was captured onto any of these chips and allowed to interact with mFcγR diluted with a running buffer. For the obtained sensorgram, the assay results were globally fit into the 1:1 Langmuir binding model using Biacore Evaluation Software to calculate an association rate constant ka (L/mol/s) and a dissociation rate constant kd (1/s). From these values, the dissociation constant KD (mol/L) was calculated.

[2] = biological target: T2, mouse FcγRIII extracellular domain, …; test: SPR Biacore T200, KD ratio
Description: as §1, §2, §3

Binder | relative mFcγRII-binding activity (MB397 = 1) [1] | relative mFcγRII-binding activity (mIgG1 = 1) [1] | relative mFcγRIII-binding activity (MB397 = 1) [2] | relative mFcγRIII-binding activity (mIgG1 = 1) [2]
B1 | 0.21 fold | 118 fold | 0.49 fold | 9.5 fold
B2 | 0.46 fold | 253 fold | 0.81 fold | 15.7 fold
B3 | 0.51 fold | 285 fold | 1.06 fold | 20.5 fold
B4 | 0.6 fold | 332 fold | 1.38 fold | 26.6 fold
B5 | 0.36 fold | 202 fold | 0.7 fold | 13.6 fold
B6 | 0.6 fold | 332 fold | 1.1 fold | 21.2 fold
B7 | 0.45 fold | 247 fold | 0.97 fold | 18.8 fold
B8 | 0.12 fold | 67.9 fold | 0.23 fold | 4.5 fold
B9 | 0.53 fold | 295 fold | 1.04 fold | 20 fold

Reference: US20150203577A1 (Chugai, published 2015)
